Measurements reported in patent publication US20260000736A1, “PURIFIED LACTOFERRIN COMPOSITIONS AND METHODS OF USE” (Lactea Therapeutics LLC, priority 2023, published 2026).
Values joined by “and” are separate entries in the source; they are usually repeats but may differ in a detail not shown here. Equal values may be shown once.

Columns and labels:
Streptococcus mutans = experiment: Biofilm formation, crystal violet assay; format: cell-based; settings: 24 hours of growth
Candida auris = experiment: Biofilm formation, crystal violet assay; format: cell-based; settings: 24 hours of growth
lactoperoxidase (LPO) = experiment: Enzymatic colorimetric assay for lactoperoxidase (LPO) activity; format: biochemical; settings: colorimetric peroxidase substrate
Source text: An enzymatic assay for lactoperoxidase (LPO) activity was developed utilizing a molecule which in the presence of peroxidase activity turns a blue color.

E. coli 0157 [1] = experiment: Bacterial growth timecourse, OD600; format: cell-based; settings: 1 mg/mL; for Bacterial Growth Timecourse, Replicate 1 / Bacterial Growth Timecourse, Replicate 2 / Bacterial Growth Timecourse, Replicate 3: OD600 relative to no treatment control at 24 hours
Protocol: For a more detailed comparison of Lactea-Lf antimicrobial activity relative to the Sigma Aldrich Lactoferrin, Lactea-Lf and Sigma Aldrich Lactoferrin were incubated at 1 mg/mL with for E. coli 0157 in LB seeded at 10∝CFU/mL. […] Results were quantified and reported as a percent of the OD600 of the no treatment control at 24 hours for all timepoints.

E. coli 0157 [2] = experiment: Bacterial growth inhibition, OD600 after 16 h; format: cell-based; settings: 1 mg/mL Lf, 16 h at 37° C.; for Relative Bacterial Growth, Replicate 1 / Relative Bacterial Growth, Replicate 2 / Relative Bacterial Growth, Replicate 3: 10∝CFU/mL E. coli 0157 in LB, OD600 relative to untreated
Protocol: As an analytical standard for the assessment of Lactoferrin (Lf) activity, 1 mg/mL Lf was added to 10∝CFU/mL E. coli 0157 in LB and incubated for 16 h at 37° C. Lactea Lactoferrin (Lactea-Lf) was produced as described in the above examples. Assessed were three independent lots of Lactea-Lf, impure samples which were generated by co-eluting Lactoperoxidase and Lactoferrin (co-elution), samples with degradation products generated by eluting Lactoferrin from old milk which was left for three days (Degradation Products), and a Sigma Aldrich Lactoferrin L9507 (Research Standard). As shown in FIG. 16 and quantified in Table 5, in the Lactea-Lf lots assessed, less than 5% the total growth of bacteria was observed as assessed by OD600 relative to the growth of untreated bacteria under these conditions. In this case, co-elution samples were samples which have a detectable peak of LPO as observable in MALDI-TOF M/S or HPLC. Degradation Products had identifiable degradation peaks as observed in HPLC or DSC.

Enterococcus faecalis = experiment: Biofilm formation, crystal violet assay; format: cell-based; settings: 24 hours of growth
[3] = format: binding; settings: ITC, Lf 5 mg/mL in 100 mM MOPS buffer pH 7, HS approximately 100 µM
[4] = tested on: ECM of primary buccal cells; experiment: ECM association by immunofluorescence in primary buccal cells; format: cell-based; settings: 100 µg/mL for 1 hr at 37 C
Protocol: Primary buccal cells were next cultured according to a standard protocol (e.g., see Russo et al. Cytotechnology. 2016 October; 68(5): 2105-2114; herein incorporated by reference for all purposes). […] Immunofluorescence imaging was performed as previously described.

[5] = Differential Scanning Calorimetry (DSC) of apolactoferrin and hololactoferrin forms; format: physicochemical; settings: 10 mg/mL
Protocol: Di[…] Calorimetry (DSC) was used to assess the hololactoferrin and apolactoferrin forms through monitoring unfolding temperatures of lactoferrin samples using a nanoDSC (TA Instruments, Lindon, UT) according to standard DSC protocols known to those of skill in the art (e.g., see Hinz et al “M[…] […] OF […] ON […] DI[…] CALORIMETRY”; herein incorporated by reference for all purposes.
API-E2 Lactoferrin (10 mg/mL), produced as described herein, was assessed by DSC. […] The lack of other peaks indicates the lack of contaminants and impurities and can assess API-E2 as ˜100%. […] Additionally, the lack of other peaks also indicated the purity of API-E2 Lactoferrin. […] The API-E2 hololactoferrin peak has a Tm of 88.38+/−0.8 C and a delta H of 632.7+/−7.2 kJ/mol. The hololactoferrin natively accounted for on average 8.74+/−1.39% of the total API-E2 lactoferrin with apolactoferrin accounting for the rest in the samples tested. However, the hololactoferrin percentage can be naturally variable. The API-E2 was calculated by this technique to contain virtually 100% pure lactoferrin.
The assay was also performed with heat-treated API-E2 Lactoferrin. API-E2 Lactoferrin was heated across a range of 50-100° C.
Lab-grade standard lactoferrin and a commercially available supplement-grade lactoferrin were also assessed by DSC under the conditions used to assess API-E2 above.

E. coli = experiment: Zone of inhibition test; format: cell-based
Protocol: A zone of inhibition test was performed to assess bioactivity of API-E2 Lactoferrin. A plate with E. coli was cultured with 100 µg/mL, 10 g/mL, 1 g/mL, and 0.1 g/mL API-E2 Lactoferrin added to paper circles and allowed to diffuse out.

[6] = tested on: salivary human bacteria (including Lactobacillus, Lactococcus, Streptococcus mutans, and Porphyromonas gingivalis); experiment: Poultry surface treatment, chicken breast inoculated with salivary bacteria; settings: 3 mg/mL surface treatment, 6 days at 37° C.
Protocol: Chicken breasts were inoculated with salivary human bacteria in a slurry as described above in pH testing (including Lactobacillus, Lactococcus, Streptococcus mutans, and Porphyromonas gingivalis) and left for 6 days at 37° C.

Pseudomonas aeruginosa = experiment: Biofilm formation, crystal violet assay; format: cell-based; settings: 24 hours of growth

B1: Lactea-Lf: bovine lactoferrin purified from raw untreated milk by cation exchange chromatography and filtration according to Example 1 (protein)
chain: APRKNVRWCTISQPEWFKCRRWQWRMKKLGAPSITCVRRAFALECIRAIAEKKADAVTLDGGMVFEAGRDPYKLRPVAAEIYGTKESPQTHYYAVAVVKKGSNFQLDQLQGRKSCHTGLGRSAGWVIPMGILRPYLSWTESLEPLQGAVAKFFSASCVPCIDRQAYPNLCQLCKGEGENQCACSSREPYFGYSGAFKCLQDGAGDVAFVKETTVFENLPEKADRDQYELLCLNNSRAPVDAFKECHLAQVPSHAVVARSVDGKEDLIWKLLSKAQEKFGKNKSRSFQLFGSPPGQRDLLFKDSALGFLRIPSKVDSALYLGSRYLTTLKNLRETAEEVKARYTRVVWCAVGPEEQKKCQQWSQQSGQNVTCATASTTDDCIVLVLKGEADALNLDGGYIYTAGKCGLVPVLAENRKTSKYSSLDCVLRPTEGYLAVAVVKKANEGLTWNSLKDKKSCHTAVDRTAGWNIPMGLIVNQTGSCAFDEFFSQSCAPGRDPKSRLCALCAGDDQGLDKCVPNSKEKYYGYTGAFRCLAEDVGDVAFVKNDTVWENTNGESTADWAKNLNREDFRLLCLDGTRKPVTEAQSCHLAVAPNHAVVSRSDRAAHVKQVLLHQQALFGKNGKNCPDKFCLFKSETKNLLFNDNTECLAKLGGRPTYEEYLGTEYVTAIANLKKCSTSPLLEACAFLTR
**Q.** Which results are given for B1?
**A.** Inhibition of Biofilm Formation (Streptococcus mutans): Strong (Lf was deemed to have a strong activity if biofilms were eliminated or significantly reduced to less than 90% less than no treatment at concentrations of 10 mg/mL or less after 24 hours of growth); Inhibition of Biofilm Formation (Candida auris): Strong (Lf was deemed to have a strong activity if biofilms were eliminated or significantly reduced to less than 90% less than no treatment at concentrations of 10 mg/mL or less after 24 hours of growth); LPO enzymatic activity (blue color reaction) (lactoperoxidase (LPO)): neither detected by M/S or by the enzymatic assay; inhibition of bacterial growth over time (E. coli 0157 [1]; E. coli 0157 in LB): near complete inhibition of bacterial growth up to 18 hours; time at which bacterial growth became observable / evident (E. coli 0157 [1]; E. coli 0157 in LB): 21 h; Bacterial Growth Timecourse, Replicate 1 (E. coli 0157 [1]; 3 h): −0.00372; Bacterial Growth Timecourse, Replicate 2 (E. coli 0157 [1]; 3 h): −0.00129; Bacterial Growth Timecourse, Replicate 3 (E. coli 0157 [1]; 3 h): 0.02246; Bacterial Growth Timecourse, Replicate 1 (E. coli 0157 [1]; 6 h): 0.007916; Bacterial Growth Timecourse, Replicate 2 (E. coli 0157 [1]; 6 h): 0.01196; Bacterial Growth Timecourse, Replicate 3 (E. coli 0157 [1]; 6 h): 0.03279; Bacterial Growth Timecourse, Replicate 1 (E. coli 0157 [1]; 9 h): 0.01583; Bacterial Growth Timecourse, Replicate 2 (E. coli 0157 [1]; 9 h): 0.02246; Bacterial Growth Timecourse, Replicate 3 (E. coli 0157 [1]; 9 h): 0.02019; Bacterial Growth Timecourse, Replicate 1 (E. coli 0157 [1]; 12 h): 0.04443; Bacterial Growth Timecourse, Replicate 2 (E. coli 0157 [1]; 12 h): 0.04136; Bacterial Growth Timecourse, Replicate 3 (E. coli 0157 [1]; 12 h): 0.02633; Bacterial Growth Timecourse, Replicate 1 (E. coli 0157 [1]; 15 h): 0.04976; Bacterial Growth Timecourse, Replicate 2 (E. coli 0157 [1]; 15 h): 0.05816; Bacterial Growth Timecourse, Replicate 3 (E. coli 0157 [1]; 15 h): 0.04685; Bacterial Growth Timecourse, Replicate 1 (E. coli 0157 [1]; 18 h): 0.04152; Bacterial Growth Timecourse, Replicate 2 (E. coli 0157 [1]; 18 h): 0.0399; Bacterial Growth Timecourse, Replicate 3 (E. coli 0157 [1]; 18 h): 0.04281; Bacterial Growth Timecourse, Replicate 1 (E. coli 0157 [1]; 21 h): 0.1997; Bacterial Growth Timecourse, Replicate 2 (E. coli 0157 [1]; 21 h): 0.1696; Bacterial Growth Timecourse, Replicate 3 (E. coli 0157 [1]; 21 h): 0.106; Bacterial Growth Timecourse, Replicate 1 (E. coli 0157 [1]; 24 h): 0.3648; Bacterial Growth Timecourse, Replicate 2 (E. coli 0157 [1]; 24 h): 0.2898; Bacterial Growth Timecourse, Replicate 3 (E. coli 0157 [1]; 24 h): 0.2034; Relative Bacterial Growth, Replicate 1 (E. coli 0157 [2]; listed as Lactea-Lf Lot 1): 3.15E−09; Relative Bacterial Growth, Replicate 2 (E. coli 0157 [2]; listed as Lactea-Lf Lot 1): 0.002228; Relative Bacterial Growth, Replicate 3 (E. coli 0157 [2]; listed as Lactea-Lf Lot 1): 0.04512; Relative Bacterial Growth, Replicate 1 (E. coli 0157 [2]; listed as Lactea-Lf Lot 2): 0.01532; Relative Bacterial Growth, Replicate 2 (E. coli 0157 [2]; listed as Lactea-Lf Lot 2): 0.005292; Relative Bacterial Growth, Replicate 3 (E. coli 0157 [2]; listed as Lactea-Lf Lot 2): 0.01281; Relative Bacterial Growth, Replicate 1 (E. coli 0157 [2]; listed as Lactea-Lf Lot 3): 0.003621; Relative Bacterial Growth, Replicate 2 (E. coli 0157 [2]; listed as Lactea-Lf Lot 3): 0.01059; Relative Bacterial Growth, Replicate 3 (E. coli 0157 [2]; listed as Lactea-Lf Lot 3): 0.008635; total growth of bacteria by OD600 relative to the growth of untreated bacteria (E. coli 0157 [2]): less than 5%; Inhibition of Biofilm Formation (Enterococcus faecalis): Strong (Lf was deemed to have a strong activity if biofilms were eliminated or significantly reduced to less than 90% less than no treatment at concentrations of 10 mg/mL or less after 24 hours of growth); binding to Heparan Sulfate [3]: far greater binding to Heparan Sulfate than the research standard; ECM association of Lactoferrin (immunofluorescence imaging) [4]: strong binding along the ECM; % of Total, Apolactoferrin [5]: 91.26 +/− 1.39%; % of Total, Hololactoferrin ([5]; listed as API-E2): 8.74+/−1.39%; Delta H, Apolactoferrin peak ([5]; listed as API-E2): 111.4 ± 2.2 kcal/mol; Delta H, Hololactoferrin peak ([5]; listed as API-E2): 151.2 ± 1.72 kcal/mol; Tm, Apolactoferrin peak ([5]; listed as API-E2): 60.2+/−0.8 C and 60.2 +/− .8 C; Tm, Hololactoferrin peak ([5]; listed as API-E2): 88.38+/−0.8 C and 88.38 +/− .8 C; zone of inhibition (E. coli; 10 µg/mL on paper circles): complete inhibition; zone of inhibition (E. coli; 100 µg/mL on paper circles): complete inhibition; zone of inhibition (E. coli; 0.1 g/mL on paper circles): No zone of inhibition; zone of inhibition (E. coli; 1 g/mL on paper circles): limited zone of inhibition; bacterial growth on chicken breast [6]: no detectable growth of any bacteria colonies; Inhibition of Biofilm Formation (Pseudomonas aeruginosa): Strong (Lf was deemed to have a strong activity if biofilms were eliminated or significantly reduced to less than 90% less than no treatment at concentrations of 10 mg/mL or less after 24 hours of growth)
